Source: patent publication US9920133B2, “Anti-tissue factor monoclonal antibody” (NATIONAL CANCER CENTER, priority 2014, dated 2018)

Key:
[1] = system: Pancreatic cancer cells BxPC3 that express TF in high amounts; test: Internalization assay (anti-hTF antibodies); type: cell-based, human; settings: 30 μg Alexa 647-labeled antibody, culturing for 3 hours, fluorescence microscope
Method: (§1) Each monoclonal antibody obtained as described above was subjected to the following internalization assay.
Pancreatic cancer cells BxPC3 that express TF in high amounts were seeded into a four-chamber Culture Slide (BD) at 5×10^4 cells/chamber, and cultured in RPMI 1640 medium at 37° C. under a 5% CO2 environment for 12 hours. The resultant was washed three times with PBS, and then 30 μg of antibody labeled with an Alexa 647 fluorescence labeling kit (Invitrogen) was diluted with 1 ml of RPMI 1640 medium and added to each chamber, followed by culturing for 3 hours. After 2 hours from the initiation of this culturing, Lysotracker® RED-DND99 (Invitrogen) was added to the culture solution to have a final concentration of 75 nM, followed by further culturing for 1 hour. Then, the resultant was washed three times with PBS. After that, immobilization was performed with 4% paraformaldehyde, and nuclear staining was performed with 4′,6-diamidino-2-phenylindole (DAPI), followed by mounting with Fluoromount-G® (Southern Biotech). Then, the cells were observed using a fluorescence microscope (Keyence).

[2] = system: human pancreatic cancer cells (BxPC3) implanted subcutaneously; test: Antitumor effect confirmation test (tumor volume); type: in vivo, nude mice (BALBc nu/nu); settings: BxPC3 xenograft nude mice, 10 mg/kg tail vein on Day 0, 4, 8, until Day 30
Method: (§2) 1×10^7 cells/100 μL of human pancreatic cancer cells (BxPC3) were implanted subcutaneously into the backs of 4-week-old nude mice (BALBc nu/nu, female), and treatment was initiated when the tumor volume (calculated based on the tumor diameter) reached about 200 mm^3. The day of initiation of the treatment was defined as Day 0, and a drug was administered to the tail vein once on each of Day 0, Day 4, and Day 8 (administration three times in total). hTF-MMAE was used as the drug, and physiological saline was administered as a control (each group: N=7). The dose of the drug was 10 mg/kg per administration (antibody amount: about 200 μg/mouse). Thereafter, the tumor diameter and the body weight were measured twice a week until Day 30. The ratios of the tumor volume and the body weight to the tumor volume and the body weight at Day 0 are shown in FIG. 4 and FIG. 5, respectively.

[3] = system: Human pancreatic cancer cells (BxPC3); test: Cytocidal effect confirmation test; type: cell-based; settings: BxPC3, 72 hours after addition, compared to mTF-MMAE
Method: Human pancreatic cancer cells (BxPC3) were added to a 96-well plate at 3×10^3 cells/well, and cultured in RPMI medium containing 10% FCS, penicillin (100 U/ml), and streptomycin (100 μg/ml) hTF-MMAE was added to the wells at various drug concentrations, and cell survival rates 72 hours after the addition were calculated.
It should be noted that, as a comparative test, a similar test was performed using, in place of hTF-MMAE, mTF-MMAE obtained by binding MMAE, in the same manner as above, to a monoclonal antibody (mTF) against mouse TF not expressed in human cancer cells, and a cell survival rate was calculated. The ratio (%) of each cell survival rate, with the cell survival rate of a negative control (no addition of a drug sample) being defined as 100%, is shown in FIG. 3.

[4] = Body weight in the antitumor effect confirmation test; type: in vivo, nude mice (BALBc nu/nu); settings: BxPC3 xenograft nude mice, 10 mg/kg tail vein on Day 0, 4, 8, until Day 30
Method: as §2

[5] = system: Mouse B16 melanoma cells and cells thereof that were forced to express TF; test: Internalization assay (anti-mTF antibody); type: cell-based; settings: mouse B16 melanoma cells and TF-forced-expression cells, 30 μg Alexa 647-labeled antibody, 3 hours
Method: as §1
Mouse B16 melanoma cells and cells thereof that were forced to express TF were seeded into a four-chamber Culture Slide (BD) at 5×10^4 cells/chamber, and cultured in RPMI 1640 medium at 37° C. under a 5% CO2 environment for 12 hours. The resultant was washed three times with PBS, and then 30 μg of antibody labeled with an Alexa 647 fluorescence labeling kit (Invitrogen) was diluted with 1 ml of RPMI 1640 medium and added to each chamber, followed by culturing for 3 hours. After 2 hours from the initiation of this culturing, Lysotracker® RED-DND99 (Invitrogen) was added to the culture solution to have a final concentration of 75 nM, followed by further culturing for 1 hour. Then, the resultant was washed three times with PBS. After that, immobilization was performed with 4% paraformaldehyde, and nuclear staining was performed with 4′,6-diamidino-2-phenylindole (DAPI), followed by mounting with Fluoromount-G® (Southern Biotech). Then, the cells were observed using a fluorescence microscope (Keyence).

[6] = biological target: T1, recombinant hTF antigen (Homo sapiens, UniProt P13726); test: Anticoagulant activity evaluation (prothrombin time); type: biochemical; settings: based on prolonged coagulation time ratio
T1 construct: made in house; host or cells: Escherichia coli
Method: The prothrombin time of each of the anti-hTF monoclonal antibodies (No. 1849 and No. 1859) was measured as described below.
3 μg of the antibody was added to 350 ng of a recombinant hTF antigen, and PBS was added to a total volume of 5 μl. An antigen-antibody reaction was performed for 15 minutes under shaking at 37° C. and 600 rpm. To the reaction solution, 50 μl of human […] subjected to anticoagulant treatment with 3.8% sodium citrate, and 100 μl of 25 mM CaCl2 were added, and at the same time, culturing was performed under shaking at 37° C. and 600 rpm. The period of time until a fibrin clot was formed (prothrombin time) was measured. The prolonged coagulation time ratio (prothrombin time ratio) of each antibody when the prothrombin time in a control using PBS in place of the reaction solution is defined as 1 are shown in Table 3 and FIG. 2.

T1 sequence (P13726 with tags, fused parts or gaps): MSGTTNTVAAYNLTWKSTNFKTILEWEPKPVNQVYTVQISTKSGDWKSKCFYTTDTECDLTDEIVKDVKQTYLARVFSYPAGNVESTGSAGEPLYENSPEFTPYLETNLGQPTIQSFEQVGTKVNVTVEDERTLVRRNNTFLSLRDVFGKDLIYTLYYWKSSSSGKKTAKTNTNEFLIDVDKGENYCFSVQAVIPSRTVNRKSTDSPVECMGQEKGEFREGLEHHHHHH

B1: No. 1849: rat anti-human tissue factor monoclonal antibody, heavy/light chain variable regions SEQ ID NOS: 9 and 10 (antibody, V domains shown)
VH: EVQLVESGGGLVQSGRSLKLSCAASGFTFSDYNMAWIRQAPKKGLEWVAAIIYDGTRTYYRDSVRGRFTISRDNAKSTLYLQVDSLRSEDTATYYCATGDSYTNFAYWGQGTLVTVSS
VL: EIVLTQSPTTMAASPGEKVTLTCRASSSLSYMHWYQQRSGTSPKLWIYETSKLASGVPNRFSGSGSGTSFSLTIDSMETEDAATYYCQQGNSYPRTFGGGTKLELK
modifications: rat
ability to be internalized (labeling substance transferred into cells) [1]: had the ability to be internalized

B2: hTF-MMAE: anti-hTF monoclonal antibody (No. 1849) having monomethyl auristatin E (MMAE) bound thereto, three to five MMAE molecules per antibody (conjugate)
VH: B1 VH
VL: B1 VL
modifications: non-natural residues
antitumor effect (tumor volume ratio to Day 0) [2]: remarkably excellent antitumor effect | cytocidal effect (cell survival rate) [3]: remarkably excellent cytocidal effect | body weight (ratio to Day 0) [4]: a reduction in body weight was not found

B3: No. 1157: anti-mouse tissue factor monoclonal antibody, heavy/light chain variable regions SEQ ID NOS: 25 and 26 (antibody, V domains shown)
VH: MAEVMLVESGGGLVQPGRSLKLSCLASGFTFTDYGMNWIRQTPGKGLEWVASITVRNYIYYADTVKGRFTISRENAKNTLYLQMTSLTSEDTALYYCSRRTEGMDYWGQGVMVTVSS
VL: MTQSPSFLSASVGDRVTVTCKVSQNINGYLNWYQQKVGEAPKVLIYNTDNLQTDVPSRFSGSGSGTVFTLTISSLHPEDVATHFCLQHYSWPLTFGSGTQLEIKR
modifications: rat
ability to be internalized (fluorescence-labeled antibody transferred into cells) [5]: had the ability to be internalized by a cell expressing mTF

B4: No. 1859: anti-human tissue factor monoclonal antibody, heavy/light chain variable regions SEQ ID NOS: 17 and 18 (antibody, V domains shown)
VH: EVMLVESGPGLVQPSQTLSLICTVSGFSLTDYSVHWVRQPPGKGLEWVGVMWSGGTTTFNSGLKSRLSISRDTSKSQVFLKMYSLRTEDTAVYYCTRERAGSPLNWFAYWGQGTLVTVSS
VL: DIVMTQSPASLSASLEEIVTITCQASQDIGNYLSWYQQKPGKSPHLLIHSSTSLADGVPSRFSGSRSGTQYSLKINRLQVEDTGVYYCLQHYSGSRTFGGGTNLELK
modifications: rat
ability to be internalized (labeling substance transferred into cells) [1]: had the ability to be internalized | anticoagulant activity [6]: extremely small
